The record followed here is article PMC9900795 (bioRxiv, 2023).

What all share (assay): pull-down
In test [1] the target is NT-Ndel1, truncation of Ndel1 containing only the N-terminal coiled-coil (UniProt Q9GZM8).
Test [2] deals with Ndel1^ΔCTCC, Ndel1 with the C-terminal coiled-coil containing the purported heavy chain-binding site deleted (UniProt Q9GZM8).
Test [3] addresses FL-Ndel1^PM, full-length Ndel1 with the five sites phosphorylated by CDK5 mutated to aspartic acid (UniProt Q9GZM8).
The next test has as its target T1, Lis1 (UniProt P43034 1-410).
T1 sequence: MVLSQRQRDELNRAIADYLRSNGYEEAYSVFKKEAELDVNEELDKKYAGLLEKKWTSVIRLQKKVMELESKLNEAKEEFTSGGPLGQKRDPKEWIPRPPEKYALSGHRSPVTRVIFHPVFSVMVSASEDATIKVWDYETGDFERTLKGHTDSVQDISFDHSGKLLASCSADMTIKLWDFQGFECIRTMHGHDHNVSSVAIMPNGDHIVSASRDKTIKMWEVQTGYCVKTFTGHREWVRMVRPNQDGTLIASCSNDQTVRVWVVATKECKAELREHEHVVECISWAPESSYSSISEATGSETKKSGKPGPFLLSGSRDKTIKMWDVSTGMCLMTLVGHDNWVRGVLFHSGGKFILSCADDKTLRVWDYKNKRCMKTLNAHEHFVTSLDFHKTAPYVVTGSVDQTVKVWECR

For test [4], the target named is FL-Ndel1^PM, full-length Ndel1 with the five sites phosphorylated by CDK5 mutated to aspartic acid (UniProt Q9GZM8). This is another data set of the same source.

As usually defined, the Kd is the free concentration of one partner at which half of the binding sites on the other are occupied at equilibrium, for simple one-to-one binding. High values mean weaker binding, low ones tighter binding. Consider “SNAP-tagged, recombinant full-length human dynein with all associated accessory chains (from UniProt Q14204;O43237;P63172;Q9NP97;P63167) (complex)”, for which the figures for the Kd in test [1] and in test [2] were 79 nM and 55 nM, respectively. In test [3], this molecule displayed a fold higher affinity than FL-Ndel1 of 2 fold.

B1: NT-Ndel1, truncation of Ndel1 containing only the N-terminal coiled-coil (domain or fragment)
chain: MDGEDIPDFSSLKEETAYWKELSLKYKQSFQEARDELVEFQEGSRELEAELEAQLVQAEQRNRDLQADNQRLKYEVEALKEKLEHQYAQSYKQVSVLEDDLSQTRAIKEQLHKYVRELEQANDDLERAKRATIVSLEDFEQRLNQAIERNAFLESELDEKESLLVSVQRLKDEARDLRQELAVRERQQEVTR
The molecule B1 came in with a Kd with Lis1 of about 1.2 nM.

B2: full-length Ndel1 (FL-Ndel1), HaloTag at the N-terminus and 6X-His tag at the C-terminus (natural protein)
chain: MDGEDIPDFSSLKEETAYWKELSLKYKQSFQEARDELVEFQEGSRELEAELEAQLVQAEQRNRDLQADNQRLKYEVEALKEKLEHQYAQSYKQVSVLEDDLSQTRAIKEQLHKYVRELEQANDDLERAKRATIVSLEDFEQRLNQAIERNAFLESELDEKESLLVSVQRLKDEARDLRQELAVRERQQEVTRKSAPSSPTLDCEKMDSAVQASLSLPATPVGKGTENTFPSPKAIPNGFGTSPLTPSARISALNIVGDLLRKVGALESKLAACRNFAKDQASRKSYISGNVNCGVLNGNGTKFSRSGHTSFFDKGAVNGFDPAPPPPGLGSSRPSSAPGMLPLSV
Turning to B2, the dissociation constant Kd in the test with Lis1 is about 4 nM.

B3: Lis1 (natural protein)
chain: MVLSQRQRDELNRAIADYLRSNGYEEAYSVFKKEAELDVNEELDKKYAGLLEKKWTSVIRLQKKVMELESKLNEAKEEFTSGGPLGQKRDPKEWIPRPPEKYALSGHRSPVTRVIFHPVFSVMVSASEDATIKVWDYETGDFERTLKGHTDSVQDISFDHSGKLLASCSADMTIKLWDFQGFECIRTMHGHDHNVSSVAIMPNGDHIVSASRDKTIKMWEVQTGYCVKTFTGHREWVRMVRPNQDGTLIASCSNDQTVRVWVVATKECKAELREHEHVVECISWAPESSYSSISEATGSETKKSGKPGPFLLSGSRDKTIKMWDVSTGMCLMTLVGHDNWVRGVLFHSGGKFILSCADDKTLRVWDYKNKRCMKTLNAHEHFVTSLDFHKTAPYVVTGSVDQTVKVWECR
For B3, the Kd in test [4] was found to be 4 nM.
